What was measured:
[1] = molecular target: T1, E50K optineurin-GFP (OPTN_(E50K)-GFP) (human, UniProt Q96CV9 1-577, E50K); assay: co-IP; Tet-on inducible RGC5 cells, doxycycline 1 ug/ml 16 h, expressing OPTNWT-, OPTN_(E50K)- or OPTN_(L157A)-GFP; lysate precipitated with polyclonal anti-GFP; eluates blotted with monoclonal anti-Rab8 or anti-TfR and anti-GFP; band intensity ratio relative to wild type
T1 construct: optineurin, human, with the glaucoma-associated mutation Glu50 to Lys; also called E50K mutant; not shown: GFP, C-terminal, kept

[2] = molecular target: T2, L157A optineurin-GFP (OPTN_(L157A)-GFP) (human, UniProt Q96CV9 1-577, L157A); assay: as above
T2 construct: optineurin, human, with the point mutation Leu157 to Ala made by site-directed mutagenesis; also called L157A mutant; not shown: GFP, C-terminal, kept
T2 sequence (Q96CV9 whole entry L157A): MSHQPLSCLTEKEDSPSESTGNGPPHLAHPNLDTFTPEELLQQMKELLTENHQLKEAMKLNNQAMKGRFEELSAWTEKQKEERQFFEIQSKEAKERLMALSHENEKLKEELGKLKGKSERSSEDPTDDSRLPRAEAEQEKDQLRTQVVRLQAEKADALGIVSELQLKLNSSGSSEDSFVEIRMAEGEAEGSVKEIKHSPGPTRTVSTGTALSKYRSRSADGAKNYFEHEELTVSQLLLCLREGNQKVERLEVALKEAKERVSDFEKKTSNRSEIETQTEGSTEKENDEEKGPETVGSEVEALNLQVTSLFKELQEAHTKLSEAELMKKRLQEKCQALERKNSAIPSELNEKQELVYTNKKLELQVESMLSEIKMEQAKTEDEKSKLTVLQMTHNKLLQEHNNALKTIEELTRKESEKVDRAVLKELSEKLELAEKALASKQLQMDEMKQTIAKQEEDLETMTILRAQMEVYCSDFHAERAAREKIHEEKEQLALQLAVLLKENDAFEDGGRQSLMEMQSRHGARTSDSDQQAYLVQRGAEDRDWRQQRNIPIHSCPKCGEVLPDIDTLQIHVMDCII

T1 sequence (Q96CV9 whole entry E50K): as the sequence (Q96CV9 whole entry L157A) above, with E50K, A157L counted along it

**Q.** How did the fold increase of co-precipitated Rab8 against OPTNWT-GFP (fold higher than wild type) [1] turn out when “endogenous Rab8 of RGC5 cells (from UniProt P35280 1-207) (natural protein)” was run?
**A.** Its fold increase of co-precipitated Rab8 against OPTNWT-GFP (fold higher than wild type) is 5.

**Q.** And the fold reduction of Rab8 binding against OPTNWT-GFP (fold lower than wild type) [2]?
**A.** The fold reduction of Rab8 binding against OPTNWT-GFP (fold lower than wild type) was 5.

B1: endogenous transferrin receptor (TfR) of RGC5 cells (receptor, rat (endogenous in RGC5), UniProt Q99376 1-761, looked up)
chain: MMDQARSAFSNLFGGEPLSYTRFSLARQVDGDNSHVEMKLAADEEENADSNMKASVRKPKRFNGRLCFATIAVVIFFLIGFMIGYLGYCKRVEQKEECVRLAEAEEADKSENDETEYVPKSSRLFWADLKTLLSEKLNSIEFTDIIKQLSQNTYTPREAGSQKDENLAYYIENLFHDFKFSKVWRDEHYVKIQVKNSVSQNLVTINSGSNIDPVEAPEGYVAFSKAGEVTGKLVHANFGTKKDFEELNYSVNGSLVIVRAGKITFAEKVANAQSFNAIGVLIYMDRNTFPVVEADLQFFGHAHLGTGDPYTPGFPSFNHTQFPPSQSSGLPSIPVQTISRAAAEKLFKNMEGNCPPSWNIDSSCKLELSQNQNVKLTVNNVLKETRILNIFGVIKGYEEPDRYIVVGAQRDAWGPGVAKSSVGTGLLLKLAQVFSDMISKDGFRPSRSIIFASWTAGDYGAVGATEWLEGYLSSLHLKAFTYINLDKVVLGTSNFKVSASPLLYTLMGKIMQDVKHPIDGKYLYRDSNWISKIEELSLDNAAFPFLAYSGIPAVSFCFCEDEDYPYLGTKLDTYEILIQKVPQLNQMVRTAAEVAGQFIIKLTHDIELTLDYEMYNSKLLSFMKDLNQFKADIKDMGLSLQWLYSARGDYFRATSRLTTDFHNAEKTNRFVMREINDRIMKVEYHFLSPYVSPRESPFRHIFWGSGSHTLSALVENLRLRQKNITAFNETLFRNQLALATWTIQGVANALSGDIWNIDNEF
notes: transferrin receptor, endogenous in rat RGC5 cells, detected as a 95-kDa band by mouse monoclonal anti-human TfR (Zymed); The abstract calls RGC5 a rat cell line; also called 95-kDa TfR; source: endogenous, RGC5 lysate
**Q.** With B1 as the molecule, how does the “fold increase of co-precipitated TfR against wild type optineurin” value ([1]; partners not purified) read?
**A.** Its value is ~10 fold higher than wild type.

**Q.** What about the “fold reduction of co-precipitated TfR against wild type optineurin” value ([2]; partners not purified) of the same molecule?
**A.** Its value is ~5 fold lower than wild type.

Source: article PMC2902519, “Impairment of Protein Trafficking upon Overexpression and Mutation of Optineurin” (PLoS ONE, 2010)
